Experimental data as given in the supplement of paper PMC9112550, “Optimization of the antimicrobial peptide Bac7 by deep mutational scanning” (BMC Biology, 2022).

Tested on: Escherichia coli TOP10
Assay: shrunken log2 fold change of peptide-encoding DNA abundance (4.5 h post-induction vs induction); higher = less antimicrobial activity (less host growth inhibition)
Conditions: time post-induction: 4.5 h; library: site-saturation at positions 5, 18, 19, 20
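Further: peptides expressed intracellularly from a pBAD plasmid library in pooled LB shake-flask culture, induced with 0.3% L-arabinose, DNA abundance read by NGS, three biological replicates, DESeq2 with apeglm shrinkage.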

Point of comparison: RRIRCRPPRLPRPRPRPMWTPRP, “shrunken log2 fold change” value -0.0185. Against it:
- RRIRHRPPRLPRPRPRPKVCPRP — within 0.2 log units, -0.19
- RRIRQRPPRLPRPRPRPYVHPRP — lower, -0.258
- RRIRLRPPRLPRPRPRPTLTPRP — higher, 0.26
- RRIRVRPPRLPRPRPRPTQRPRP — higher, 0.565
- RRIRDRPPRLPRPRPRPPYNPRP — lower, -0.395
- RRIRIRPPRLPRPRPRPDQTPRP — within 0.2 log units, 0.000407
- RRIRHRPPRLPRPRPRPESIPRP — within 0.2 log units, -0.107
- RRIRPRPPRLPRPRPRPGTFPRP — lower, -0.226
- RRIRARPPRLPRPRPRPTKVPRP — higher, 0.339
- RRIRIRPPRLPRPRPRPYHPPRP — within 0.2 log units, -0.0475
- RRIRCRPPRLPRPRPRPSNIPRP — lower, -0.319
- RRIRSRPPRLPRPRPRPYFKPRP — lower, -0.857
- RRIRIRPPRLPRPRPRPEARPRP — higher, 0.312
- RRIRARPPRLPRPRPRPHEPPRP — within 0.2 log units, 0.00298
- RRIRCRPPRLPRPRPRPPEGPRP — higher, 0.926
- RRIRARPPRLPRPRPRPLSSPRP — higher, 0.2
- RRIRHRPPRLPRPRPRPMECPRP — lower, -0.427
- RRIRIRPPRLPRPRPRPWLRPRP — lower, -0.358
- RRIRLRPPRLPRPRPRPRCCPRP — within 0.2 log units, 0.0851
- RRIRYRPPRLPRPRPRPYTFPRP — within 0.2 log units, 0.041
- RRIRIRPPRLPRPRPRPPLMPRP — within 0.2 log units, -0.16
- RRIRMRPPRLPRPRPRPGYYPRP — within 0.2 log units, -0.0156
- RRIRQRPPRLPRPRPRPDLPPRP — within 0.2 log units, -0.134
- RRIRQRPPRLPRPRPRPSTGPRP — within 0.2 log units, -0.0811
- RRIRVRPPRLPRPRPRPGTFPRP — lower, -0.867
- RRIRTRPPRLPRPRPRPQQWPRP — higher, 0.46
- RRIRTRPPRLPRPRPRPKDCPRP — within 0.2 log units, 0.0164
- RRIRVRPPRLPRPRPRPDRPPRP — within 0.2 log units, -0.109
- RRIRGRPPRLPRPRPRPIPFPRP — higher, 0.266
- RRIRSRPPRLPRPRPRPLPDPRP — higher, 0.266
- RRIRRRPPRLPRPRPRPQEHPRP — higher, 1.34
- RRIRGRPPRLPRPRPRPIMNPRP — higher, 0.237
- RRIRTRPPRLPRPRPRPYMKPRP — within 0.2 log units, -0.0199
- RRIRDRPPRLPRPRPRPWSYPRP — lower, -1.29
- RRIRMRPPRLPRPRPRPYEHPRP — lower, -0.291
- RRIRQRPPRLPRPRPRPHKAPRP — within 0.2 log units, -0.0398
- RRIRERPPRLPRPRPRPHFWPRP — within 0.2 log units, 0.16
- RRIRWRPPRLPRPRPRPFKCPRP — within 0.2 log units, -0.127
- RRIRDRPPRLPRPRPRPTCKPRP — within 0.2 log units, 0.0657
- RRIRARPPRLPRPRPRPVYAPRP — higher, 0.205
- RRIRHRPPRLPRPRPRPKIEPRP — within 0.2 log units, 0.0371
- RRIRWRPPRLPRPRPRPACQPRP — within 0.2 log units, 0.015
- RRIRVRPPRLPRPRPRPFPWPRP — within 0.2 log units, -0.0892
- RRIRKRPPRLPRPRPRPTTKPRP — within 0.2 log units, -0.0244
- RRIRCRPPRLPRPRPRPDSIPRP — within 0.2 log units, -0.0365
- RRIRFRPPRLPRPRPRPNCHPRP — lower, -0.313
- RRIRPRPPRLPRPRPRPRGAPRP — higher, 0.495
- RRIRCRPPRLPRPRPRPGPSPRP — within 0.2 log units, 0.17
- RRIRCRPPRLPRPRPRPKRSPRP — higher, 0.235
- RRIRARPPRLPRPRPRPGNGPRP — higher, 0.275
- RRIRKRPPRLPRPRPRPVVVPRP — higher, 0.212
- RRIRIRPPRLPRPRPRPCSCPRP — lower, -0.446
- RRIRIRPPRLPRPRPRPTIMPRP — lower, -0.745
- RRIRQRPPRLPRPRPRPFPHPRP — higher, 0.259
- RRIRKRPPRLPRPRPRPHVYPRP — higher, 0.22
- RRIRCRPPRLPRPRPRPQDYPRP — within 0.2 log units, -0.176
- RRIRIRPPRLPRPRPRPVLFPRP — lower, -0.357
- RRIRHRPPRLPRPRPRPNCEPRP — within 0.2 log units, -0.0369
- RRIRYRPPRLPRPRPRPDVPPRP — within 0.2 log units, -0.0784
- RRIRYRPPRLPRPRPRPYVCPRP — lower, -1.14
- RRIRQRPPRLPRPRPRPYKGPRP — within 0.2 log units, -0.0872
- RRIRVRPPRLPRPRPRPFDFPRP — lower, -0.266
- RRIRNRPPRLPRPRPRPTWLPRP — higher, 0.195
- RRIRWRPPRLPRPRPRPTQWPRP — higher, 0.346
- RRIRMRPPRLPRPRPRPLFTPRP — within 0.2 log units, -0.171
- RRIRFRPPRLPRPRPRPYPMPRP — within 0.2 log units, -0.119
- RRIRDRPPRLPRPRPRPYLEPRP — within 0.2 log units, -0.0399
- RRIRERPPRLPRPRPRPNRAPRP — within 0.2 log units, 0.0169
- RRIRLRPPRLPRPRPRPYNWPRP — within 0.2 log units, -0.0937
- RRIRERPPRLPRPRPRPAYFPRP — within 0.2 log units, 0.019
- RRIRMRPPRLPRPRPRPTPTPRP — higher, 2
- RRIRQRPPRLPRPRPRPRSVPRP — higher, 0.235
- RRIRTRPPRLPRPRPRPIGTPRP — within 0.2 log units, 0.0179
- RRIRMRPPRLPRPRPRPSPQPRP — higher, 0.716
- RRIRFRPPRLPRPRPRPSCEPRP — lower, -0.619
- RRIRVRPPRLPRPRPRPNRAPRP — higher, 0.202
- RRIRDRPPRLPRPRPRPKPAPRP — higher, 0.278
- RRIRERPPRLPRPRPRPACYPRP — lower, -0.308
- RRIRLRPPRLPRPRPRPQWPPRP — higher, 0.28
- RRIRARPPRLPRPRPRPRRKPRP — higher, 0.644
- RRIRVRPPRLPRPRPRPLITPRP — lower, -0.439
- RRIRLRPPRLPRPRPRPYMCPRP — lower, -0.252
- RRIRARPPRLPRPRPRPTVGPRP — higher, 0.794
- RRIRCRPPRLPRPRPRPGMQPRP — lower, -0.255
- RRIRPRPPRLPRPRPRPPGFPRP — higher, 0.847
- RRIRQRPPRLPRPRPRPLMLPRP — within 0.2 log units, -0.213
- RRIRIRPPRLPRPRPRPSKGPRP — within 0.2 log units, -0.142
- RRIRMRPPRLPRPRPRPANFPRP — within 0.2 log units, -0.000946
- RRIRPRPPRLPRPRPRPYHGPRP — within 0.2 log units, 0.0397
- RRIRIRPPRLPRPRPRPDPQPRP — within 0.2 log units, -0.186
